Data: patent publication US7666644B2, “Glyphosate-N-acetyltransferase (GAT) genes” (Verdia, Inc., priority 2004, dated 2010)

B1: GAT4621: altered gat coding sequence encoding 25-8H7 M1MA; Ala codon inserted and more frequently utilized codons throughout (nucleic acid)
DNA: ATGGCTATTGAGGTTAAGCCTATCAACGCAGAGGATACCTATGACCTTAGGCATAGAGTGCTCAGACCAAACCAGCCTATCGAAGCCTGCATGTTTGAGTCTGACCTTACTAGGAGTGCATTTCACCTTGGTGGATTCTACGGAGGTAAACTGATTTCCGTGGCTTCATTCCACCAAGCTGAGCACTCTGAACTTCAAGGTAAGAAGCAGTACCAGCTTAGAGGTGTGGCTACCTTGGAAGGTTATAGAGAGCAGAAGGCTGGTTCCAGTCTCGTGAAACACGCTGAAGAGATTCTCAGAAAGAGAGGTGCTGACATGATCTGGTGTAATGCCAGGACATCTGCTTCAGGATACTACAGGAAGTTGGGATTCAGTGAGCAAGGAGAGGTGTTCGATACTCCTCCAGTTGGACCTCACATCCTGATGTATAAGAGGATCACATAA
modifications: Synthetic nucleic acid sequence GAT4621; CDS (1)...(444): encodes 25-8H7 M1MA (SEQ ID NO:950)
notes: Ala codon inserted and more frequently utilized codons throughout
B2: YitI: most closely related sequence available in Genbank, yitI from Bacillus subtilis (protein, UniProt O06744 1-149, looked up)
Uncharacterized …: MLEVKTISVEDTYEIRHRILRPHQSIEQCKYKEDHAEGSFHLGVFYDGTLISIASFSPQSQPLLTEASAYRLRGMATLEGYRDQKAGSTLIKHAEHKLAESGVQAVWCNARHHVKGYYAKLGWKELGEPFDIPGIGNHIVMYKTLRTSR
B3: 25-8H7: further evolved GAT enzyme, SEQ ID NO:907; gene GAT25-8H7/4618 SEQ ID NO:906 (protein)
chain: MIEVKPINAEDTYDLRHRVLRPNQPIEACMFESDLTRSAFHLGGFYGGKLISVASFHQAEHSELQGKKQYQLRGVATLEGYREQKAGSSLVKHAEEILRKRGADMIWCNARTSASGYYRKLGFSEQGEVFDTPPVGPHILMYKRIT
modifications: 25-8H7
B4: 17-15H3: evolved GAT; polypeptide SEQ ID NO:601, transgene SEQ ID NO:549 (protein)
chain: MIEVKPINAEDTYELRHRILRPNQPIEACMFESDLLRGAFHLGGYYGGKLISIASFHQAEHSELQGQKQYQLRGMATLEGYREQKAGSSLIKHAEEILRKRGADLLWCNARTSASGYYKKLGFSEQGEVFDTPPVGPHILMYKRIT
modifications: D_S00260796_17-15H3
B5: GAT4620: altered gat coding sequence encoding 25-8H7 M1MA; Ala codon inserted, first 7 codons more frequently utilized, Ser 62 and Arg 111 changed (nucleic acid)
DNA: ATGGCTATTGAGGTTAAACCTATTAACGCAGAGGATACCTATGACCTAAGGCATAGAGTCCTCAGACCAAACCAGCCGATAGAAGCGTGTATGTTTGAAAGCGATTTAACGCGTAGTGCATTTCACTTAGGCGGCTTCTACGGGGGCAAACTGATTTCCGTCGCTTCATTCCACCAGGCCGAGCACTCTGAACTTCAAGGCAAGAAACAGTACCAGCTTCGAGGTGTGGCTACCTTGGAAGGTTATCGTGAGCAGAAGGCGGGTTCCAGTCTAGTTAAACACGCTGAAGAAATTCTACGTAAGAGGGGGGCGGACATGATTTGGTGTAATGCGAGGACATCTGCCTCAGGCTACTACAGAAAGTTAGGCTTCAGCGAGCAGGGAGAGGTATTCGACACGCCGCCAGTAGGACCTCACATCCTGATGTATAAAAGGATCACATAA
modifications: Synthetic nucleic acid sequence GAT4620; CDS (1)...(444): encodes 25-8H7 M1MA (SEQ ID NO:950)
notes: Ala codon inserted, first 7 codons more frequently utilized, Ser 62 and Arg 111 changed

Columns and labels:
[1] = test system: Nicotiana tabacum L. Xanthi leaf explants; assay: Tobacco shoot regeneration with glyphosate selection after Agrobacterium-mediated transformation; assay type: cell-based; settings: explants lacking a GAT gene
Excerpt: Agrobacterium-mediated transformation of plant cells occurs at low efficiencies. To allow propagation of transformed cells while inhibiting proliferation of non-transformed cells, a selectable marker is needed. Antibiotic markers for kanamycin and hygromycin and the herbicide modifying gene bar, which detoxifies the herbicidal compound phosphinothricin, are examples of selectable markers used in plants (Methods in Molecular Biology, 1995, 49:9-18). […] An evolved GAT gene (0—5B8), SEQ ID NO:190, was cloned between a plant promoter (enhanced strawberry vein banded virus) and a […] terminator and introduced into the T-DNA region of the binary vector pMAXY3793 suitable for transformation of plant cells via Agrobacterium tumefaciens EHA105 as shown in FIG. 12. A screenable GUS marker was present in the T-DNA to allow confirmation of transformation. Transgenic tobacco shoots were generated using glyphosate as the only selecting agent.
Axillary buds of Nicotiana tabacum L. Xanthi were subcultured on half-strength MS medium with sucrose (1.5%) and Gelrite (0.3%) under 16-h light (35-42 μEinsteins m^−2 s^−1, cool white fluorescent lamps) at 24° C. every 2-3 weeks. Young leaves were excised from plants after 2-3 weeks subculture and were cut into 3×3 mm segments. A. tumefaciens EHA 105 was inoculated into LB medium and grown overnight to a density of A600=1.0. […]

[2] = test system: Nicotiana benthamiana leaves; assay: Transient expression by Agrobacterium infiltration, GAT protein by SDS-PAGE and blot with antiGAT polyclonal antibody; assay type: in vivo; settings: infiltrated leaves, 3 days, as a percent of total protein
Protocol: A binary vector with a dMMV-gat-UBQ3 cassette in the T-DNA was transformed into competent Agrobacterium tumefaciens strain C58 cells by electroporation (McCormac et al., Mol. Biotechnol. 9:155-159, 1998). After growth on LB+40 ug/ml kanamycin plates for 2 days at 28° C., colonies were inoculated into LB+40 ug/ml kanamycin liquid medium and shaken overnight at 28° C. The Agrobacterium cells were collected by centrifugation at 4000 g for 10 minutes and then resuspended in a volume of 10 mM MgSO4 equivalent to the initial culture volume. This bacterial suspension was forced or “infiltrated” into the intercellular spaces of Nicotiana benthamiana leaves using a 1 ml plastic syringe (with no needle). By infiltrating 200-300 μl of bacterial suspension into each spot (typically 3-4 cm^2 in infiltrated area), 4 or more spots could be arranged on a single leaf still attached to the plant. In some cases the gat-containing Agrobacterium strain was diluted 5:1 or 10:1 with a second Agrobacterium strain lacking gat prior to infiltration. This dilution step has the effect of reducing the overall expression of the gat gene in the plant cells, thereby preventing saturation and allowing easier visualization of expression differences between variants and constructs. After 3 days the leaf material was ground, extracted in aqueous buffer, and centrifuged. […]

[3] = GAT activity of native YitI; assay type: biochemical
[4] = GAT activity with substrate L-serine (DTNB); assay type: biochemical; settings: for kcat/KM % of glyph: Substrate Serine
Protocol: (§1) GAT activity of several GAT polypeptides of the present invention was evaluated with respect to a number of amino acid substrates. The GAT polypeptide, AcCoA and amino substrate were incubated in 25 mM Hepes, pH 6.8, 10% ethylene glycol in the wells of a 96-well polystyrene plate. After 30 minutes, the reactions were stopped by the addition of 30 μl of 10 mM 5,5′-dithiobis-2-nitrobenzoate (DTNB) in 500 mM Tris, pH 7.5. After 2 minutes, absorbance was read at 412 nm in a Spectramax Plus plate reader (Molecular Devices, Sunnyvale, Calif.).

[5] = GAT activity with substrate L-aspartate (DTNB); assay type: biochemical; settings: for kcat/KM % of glyph: Substrate Aspartate
Protocol: as §1

[6] = GAT activity with substrate glyphosate (amino acid substrate study, DTNB); assay type: biochemical; settings: Substrate Glyph, relative to 401
Protocol: as §1

[7] = assay type: physicochemical; settings: buffer, pH 7.2
Protocol: The half lives of several GAT polypeptides were also measured at 37.5° C. according to the following procedure. GAT polypeptides 401 (SEQ ID NO: 6), 17-15H3 (SEQ ID NO: 601), 20-8H12 (SEQ ID NO: 739), 22-13B12 (SEQ ID NO: 781), 22-15B4 (SEQ ID NO: 946) and 22-18C5 (SEQ ID NO: 795) were incubated in a matrix of 25 mM Hepes, pH 7.2, 10 mM KCl and 10% methanol (“HKM”). At various timepoints, aliquots were withdrawn and assayed in triplicate at 22° C. using the continuous spectrophotometric assay described in Example 7 using saturating concentrations of glyphosate (20 mM for 401, 5 mM for the rest) and AcCoA (167 uM). The standard error at each time point averaged about 2.9%. GAT activity was plotted as a function of incubation time and the data was fitted to a curve for exponential decay (y=e^−x), where y is enzyme activity and x is time in hours, from which half life was calculated.

[8] = test system: maize plants; assay: Effect of temperature variation on glyphosate tolerance of T1 maize expressing GAT transgenes; assay type: in vivo; settings: cool/cold, warm and hot conditions, 0×, 4×, 6×, 8× glyphosate at V2, scored 5 and 14 days
Protocol: Maize plants expressing GAT variant transgenes 10—4F2 (SEQ ID NO:203), 17-15H3 (SEQ ID NO:549), and 18-28D9b (SEQ ID NO:814) were produced using the methods described in Example 13. The effect of temperature on glyphosate tolerance was evaluated in T1 plants. The T1 plants were grown in cool/cold (day 14° C., night 8° C.), warm (day 28° C., night 20° C.), and hot (day 37° C., night 20° C.) conditions. T1 plants were sprayed at V2 with four different glyphosate spray treatments (0×, 4×, 6×, and 8×). Plants were scored at 5 and 14 days after treatment for leaf discoloration and plant height comparisons as described in Example 13.

[9] = Transfer of the propionyl group from propionyl CoA to glyphosate, DTNB detection; assay type: biochemical; settings: 1 mM propionyl CoA, 5 mM glyphosate or no glyphosate, 30 minutes
Protocol: The ability of GAT variants (B6 (SEQ ID NO:7), 0—6D10 (SEQ ID NO:448), 17-15H3 (SEQ ID NO:601), and 20-8H12c (SEQ ID NO:817)) to transfer the propionyl group from propionyl CoA to glyphosate was tested in reaction mixtures containing 5 mM glyphosate or no glyphosate. Propionyl CoA was present at 1 mM. After 30 minutes the reactions were terminated and the presence of free […] was determined by the addition of DTNB.

Molecule | level of GAT protein accumulated compared to the unmodified GAT25-8H7/4618 gene [2] | activity with respect to serine and phosphoserine compared to native GAT polypeptide [4] | kcat/KM % of glyph [4] [%] | increase in activity with aspartate compared to native GAT polypeptide [5] [fold] | kcat/KM % of glyph [5] [%] | kcat/KM Fold imp. [6] [fold] | also measured
O=C(O)CNCP(=O)(O)O [Glyphosate, N-phosphonomethylglycine] | – | – | – | – | – | – | Glyphosate concentrations that completely inhibited any shoot formation [1]: greater than 20 uM
B1 | about two-fold greater | – | – | – | – | – | –
B2 | – | – | – | – | – | – | GAT activity [3]: detectable GAT activity
B3 | – | loss of activity | 0.00855 | 40 | 0.520 | 7031 | –
B4 | – | loss of activity | 0.0882 | 40 | 3.24 | 1086 | Half-life [7]: 45 h; effect of growth temperature on glyphosate tolerance [8]: not adversely effected; glyphosate-dependent hydrolysis of propionyl CoA [9]: showed glyphosate-dependent hydrolysis of propionyl CoA
B5 | comparable | – | – | – | – | – | –
